Values quoted from earlier work in publication PMC5713020.
Where “and” joins values, the source holds several entries; their conditions need not be identical. Identical values can stand only once. Each block holds one substance with its values, some of them ahead of it.

Assays:
p53 (Homo sapiens) = p53 (Homo sapiens) (UniProt P04637); test: SPR
MDM4 (Homo sapiens) [1] = biological target: MDM4 (Homo sapiens) (UniProt O15151); test: SPR
MDM4 (Homo sapiens) [2] = biological target: MDM4 (Homo sapiens) (UniProt O15151); test: SPR (Langmuir isotherm)
p73 (Homo sapiens) = p73 (Homo sapiens) (UniProt O15350); test: AFS
Chain of p73 (Homo sapiens) (O15350 whole entry): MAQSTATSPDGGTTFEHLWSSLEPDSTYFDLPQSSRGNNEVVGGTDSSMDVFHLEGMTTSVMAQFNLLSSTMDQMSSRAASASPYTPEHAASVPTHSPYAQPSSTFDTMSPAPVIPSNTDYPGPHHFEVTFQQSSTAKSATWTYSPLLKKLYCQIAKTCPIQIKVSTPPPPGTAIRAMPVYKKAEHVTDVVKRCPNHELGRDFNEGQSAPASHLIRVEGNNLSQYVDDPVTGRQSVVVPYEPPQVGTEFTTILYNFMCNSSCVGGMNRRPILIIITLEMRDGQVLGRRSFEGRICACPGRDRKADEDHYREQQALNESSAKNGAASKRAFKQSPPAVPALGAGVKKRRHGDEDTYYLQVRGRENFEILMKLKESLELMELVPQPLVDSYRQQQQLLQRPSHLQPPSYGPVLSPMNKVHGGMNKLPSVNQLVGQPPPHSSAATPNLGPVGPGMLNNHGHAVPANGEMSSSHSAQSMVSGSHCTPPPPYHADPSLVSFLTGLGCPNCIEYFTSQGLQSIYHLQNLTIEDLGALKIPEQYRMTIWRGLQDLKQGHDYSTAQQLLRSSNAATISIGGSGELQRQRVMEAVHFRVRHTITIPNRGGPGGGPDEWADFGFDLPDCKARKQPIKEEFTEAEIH

p63 DBD (Homo sapiens) = p63 DBD (Homo sapiens) (UniProt Q9H3D4); test: AFS
Chain of p63 DBD (Homo sapiens) (Q9H3D4 166-362): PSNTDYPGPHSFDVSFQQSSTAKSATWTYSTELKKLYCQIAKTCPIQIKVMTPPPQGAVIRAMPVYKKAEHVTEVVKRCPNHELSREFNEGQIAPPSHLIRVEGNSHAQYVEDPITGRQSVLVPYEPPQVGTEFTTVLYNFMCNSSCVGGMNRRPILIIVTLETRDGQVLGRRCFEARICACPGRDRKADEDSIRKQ

Chain of p28 p28 peptide (P00282 70-97): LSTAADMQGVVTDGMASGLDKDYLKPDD
Chain of MDM4 (Homo sapiens) (O15151 whole entry): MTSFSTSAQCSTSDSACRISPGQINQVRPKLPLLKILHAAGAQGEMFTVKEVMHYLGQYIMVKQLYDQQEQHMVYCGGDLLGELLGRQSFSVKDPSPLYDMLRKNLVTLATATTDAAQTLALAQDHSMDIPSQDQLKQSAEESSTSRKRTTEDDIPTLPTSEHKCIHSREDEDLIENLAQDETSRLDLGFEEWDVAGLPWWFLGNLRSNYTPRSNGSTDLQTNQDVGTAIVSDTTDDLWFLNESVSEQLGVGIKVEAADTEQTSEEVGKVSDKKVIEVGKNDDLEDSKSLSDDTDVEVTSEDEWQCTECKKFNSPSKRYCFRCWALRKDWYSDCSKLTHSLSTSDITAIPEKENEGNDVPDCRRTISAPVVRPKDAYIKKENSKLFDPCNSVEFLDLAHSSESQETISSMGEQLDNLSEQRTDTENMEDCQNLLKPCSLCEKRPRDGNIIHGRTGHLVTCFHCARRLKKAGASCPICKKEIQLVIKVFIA
Chain of p53 (Homo sapiens) (P04637 whole entry): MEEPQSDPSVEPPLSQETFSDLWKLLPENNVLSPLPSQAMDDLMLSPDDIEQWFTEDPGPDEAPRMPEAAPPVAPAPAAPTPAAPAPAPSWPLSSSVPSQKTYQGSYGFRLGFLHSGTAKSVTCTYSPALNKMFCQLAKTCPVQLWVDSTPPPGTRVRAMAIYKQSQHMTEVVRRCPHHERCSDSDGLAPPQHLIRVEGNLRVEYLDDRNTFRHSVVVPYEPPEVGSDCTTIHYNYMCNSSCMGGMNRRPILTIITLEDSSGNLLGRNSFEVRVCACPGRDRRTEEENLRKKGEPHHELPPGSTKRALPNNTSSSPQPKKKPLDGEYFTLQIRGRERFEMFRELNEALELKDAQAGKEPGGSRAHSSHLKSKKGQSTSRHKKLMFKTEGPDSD
Chain of MDM2 (Q00987 whole entry): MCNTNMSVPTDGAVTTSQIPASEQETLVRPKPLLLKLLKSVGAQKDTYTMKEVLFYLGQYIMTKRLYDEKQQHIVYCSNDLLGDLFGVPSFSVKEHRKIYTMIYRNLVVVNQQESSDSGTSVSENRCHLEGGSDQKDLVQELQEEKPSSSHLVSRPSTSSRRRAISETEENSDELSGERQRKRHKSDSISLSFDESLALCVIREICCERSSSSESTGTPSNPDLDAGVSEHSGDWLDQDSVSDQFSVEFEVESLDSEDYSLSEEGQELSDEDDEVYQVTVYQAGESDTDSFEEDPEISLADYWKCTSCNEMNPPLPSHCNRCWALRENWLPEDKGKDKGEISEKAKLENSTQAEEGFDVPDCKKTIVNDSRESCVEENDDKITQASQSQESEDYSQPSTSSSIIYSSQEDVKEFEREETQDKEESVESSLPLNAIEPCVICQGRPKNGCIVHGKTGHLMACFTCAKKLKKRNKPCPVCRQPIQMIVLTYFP
Chain of Azurin (P00282 21-148): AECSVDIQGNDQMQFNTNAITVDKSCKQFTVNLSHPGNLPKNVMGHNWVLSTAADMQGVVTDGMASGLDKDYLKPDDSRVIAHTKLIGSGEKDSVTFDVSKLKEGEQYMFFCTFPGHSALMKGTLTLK

Substance: Azurin (from UniProt P00282)
Kd (p53 (Homo sapiens)): 1.3 µM and 1.2 µM

Kd (MDM4 (Homo sapiens) [1]): 0.39 µM
Kd (MDM4 (Homo sapiens) [2]): 1 µM
Substance: MDM2 (from UniProt Q00987)

Substance: p28 p28 peptide (from UniProt P00282)
Kd (p73 (Homo sapiens)): 0.1 µM
Kd (p63 DBD (Homo sapiens)): 1 µM
